Reference: the supplement of paper PMC12042874
± gives the uncertainty stated by the source.

Experiment: amyloid nucleation score (Sup35N fusion, yeast selection) (log enrichment); library NNK3; higher = more nucleation; inactive = no reads after selection
Summary of the method: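 The nucleation score, computed with DiMSum, is the log enrichment of output over input reads, centred on the mode score of non-aggregating sequences. Sequences with under 100 input reads were dropped. Reads were generated by Illumina sequencing of plasmid inserts from psi-negative yeast with Sup35N fused to peptides of 20 random codons, induced with 100 μM copper sulfate for 24 hours and grown 7 days at 30°C on medium lacking adenine and uracil.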
In the case of RTSYNTFGGFYTNGWTLILR, the amyloid nucleation score is reported as “inactive”.
For GCHLFHWFIFAYCYHYEGTN, the amyloid nucleation score was 1.91 ± 0.09.
For RITGALRAFGSRTFCASCVC, the amyloid nucleation score was “inactive”.
In the case of SAPKWGGTYDRVCTISNFTV, the amyloid nucleation score is reported as “inactive”.
With ISTSLMDRRTKMLRQM the amyloid nucleation score was “inactive”.
RECWMKPNLNSNTYSEMICE gave an amyloid nucleation score of 0.011 ± 0.81.
For DGILTVCYEVVNWNSSSVLL, the amyloid nucleation score was “inactive”.
With GHLFVNTRYFGNFLDSSQVR the amyloid nucleation score was “inactive”.
With MTVWNSWNINIVWVMFLSA the amyloid nucleation score was “inactive”.
In the case of LFTLWVMRFEFWYSCFFVSV, the amyloid nucleation score is reported as “inactive”.
For TSGDMRAVYGLYREIRLVNT, the amyloid nucleation score was “inactive”.
In the case of LVSFWSVRFIICYLRLGLSC, the amyloid nucleation score is reported as “inactive”.
With ANSYLTYN the amyloid nucleation score was “inactive”.
In the case of RCREFERKLALSLQSVGS, the amyloid nucleation score is reported as “inactive”.
For YYAFPLYKKSFYRIPTNVWA, the amyloid nucleation score was “inactive”.
In the case of DIPAVINVMGSVYDGR, the amyloid nucleation score is reported as “inactive”.
In the case of ERFNPDEVCE, the amyloid nucleation score is reported as “inactive”.
For YSATGIPSCWRLNFVENLRT, the amyloid nucleation score was “inactive”.
In the case of GAMNVESLSMFMRVYYVPYR, the amyloid nucleation score is reported as “inactive”.
For DDSLDVSCLEYRSAME, the amyloid nucleation score was “inactive”.
With LDLLSAVGGVQRLIIHCCWM the amyloid nucleation score was “inactive”.
In the case of ENVPLNAAYCSL, the amyloid nucleation score is reported as “inactive”.
For ISVLVKWLVAERTSYWIMIP, the amyloid nucleation score was “inactive”.
For MVRMDHCQVEDSMVTNVD, the amyloid nucleation score was “inactive”.
For TRCGFS, the amyloid nucleation score was “inactive”.
With VSHFSSRHKRTEVRSGSPQT the amyloid nucleation score was “inactive”.
In the case of ARSDVSCPWSGRMATVCLTV, the amyloid nucleation score is reported as “inactive”.
In the case of SSSDCGNMNTTPRWAGGIGA, the amyloid nucleation score is reported as “inactive”.
Substance MSSQVMALIRFQFHSHDSHG has an amyloid nucleation score of 1.36 ± 0.16.
For IPWCSPDGLVRRYHHKR, the amyloid nucleation score was “inactive”.
In the case of SEAPSSR, the amyloid nucleation score is reported as “inactive”.
For DTGLAESQGMN, the amyloid nucleation score was “inactive”.
For MYFVKMLMGVILLVNFSRW, the amyloid nucleation score was “inactive”.
With LPHVAVEAVTLAMWVE the amyloid nucleation score was “inactive”.
In the case of RKHAGLYLQYE, the amyloid nucleation score is reported as “inactive”.
In the case of YIYDSLWW, the amyloid nucleation score is reported as “inactive”.
Substance QYSHPQRIIFSF has an amyloid nucleation score of -0.249 ± 0.43.
With HKVQESAY the amyloid nucleation score was “inactive”.
In the case of CIFTIFNYQTLIELSHYFSR, the amyloid nucleation score is reported as 1.82 ± 0.067.
Substance RGSKQLDWHSYYNRVLDIGR has an amyloid nucleation score of -0.296 ± 0.88.
With FCDNQWRHKPTRVTIFFE the amyloid nucleation score was “inactive”.
SNPGAMSMCEYGGLFSRWLY gave an amyloid nucleation score of -0.516 ± 0.96.
With WVLLKSWQNCLLGELVSEVQ the amyloid nucleation score was “inactive”.
With NKQNEVSRSCLSRCRYFGGD the amyloid nucleation score was “inactive”.
In the case of DFHDLEWILNIEGACEEQGT, the amyloid nucleation score is reported as “inactive”.
In the case of LNFRSV, the amyloid nucleation score is reported as “inactive”.
For VGYAGVIIEKKYHCPKKSAF, the amyloid nucleation score was “inactive”.
With CTFQYSIIYRCYYRYGVVR the amyloid nucleation score was “inactive”.
For MTFIRPKLGKKPGMYGTNIV, the amyloid nucleation score was “inactive”.
For LSYNRKEYGNRPGFSEYSST, the amyloid nucleation score was “inactive”.
In the case of LVVGISRPMSTGSMASWQWR, the amyloid nucleation score is reported as “inactive”.
In the case of DYTPGGCRPTTNCLS, the amyloid nucleation score is reported as “inactive”.
In the case of TCFLVFTCVVGV, the amyloid nucleation score is reported as “inactive”.
In the case of SAGIIFCMKSLVFSFLFITL, the amyloid nucleation score is reported as “inactive”.
With TSSQKDIWQDVYGLLFWAQS the amyloid nucleation score was “inactive”.
For SVKVPWWDCINVRAHMWRMV, the amyloid nucleation score was “inactive”.
CFAIYSLLYRVR gave an amyloid nucleation score of 1.55 ± 0.074.
SSNDVVTSYRILCKVSTKAT showed an amyloid nucleation score of -0.622 ± 0.66.
With GTYPSKIKGFTLKGNLR the amyloid nucleation score was “inactive”.
In the case of CFSTPCLCQSNELANIGSPT, the amyloid nucleation score is reported as “inactive”.
With TLGGEMQFVKMFCLLYFNCG the amyloid nucleation score was “inactive”.
For MRGWLRLSELCKGVLIVGFA, the amyloid nucleation score was “inactive”.
In the case of FRYAMSYVGGMGSSINALIW, the amyloid nucleation score is reported as “inactive”.
With YVNSNWNNISAQASNSFSGR the amyloid nucleation score was “inactive”.
With YDMVLRSHATVAYSHYGFDM the amyloid nucleation score was “inactive”.
For MSSYKCSECLRGHRGTPLPV, the amyloid nucleation score was “inactive”.
With LFRGRCAPLFSQSVA the amyloid nucleation score was “inactive”.
For LRGILSIVLVCGENYIKHCG, the amyloid nucleation score was “inactive”.
In the case of MYLVR, the amyloid nucleation score is reported as “inactive”.
In the case of WNESAGGFRYFPEDAKCDRA, the amyloid nucleation score is reported as “inactive”.
For IQMGGWIIMYSAGCGA, the amyloid nucleation score was “inactive”.
In the case of SPYTVQ, the amyloid nucleation score is reported as “inactive”.
In the case of EDIGGCECRYSIKDVY, the amyloid nucleation score is reported as “inactive”.
In the case of CPYALMWSLSYSWSFPYRMS, the amyloid nucleation score is reported as 0.286 ± 0.56.
With VSHTSNTTYRWRMFIYWSAF the amyloid nucleation score was 0.104 ± 0.26.
For GCKEL, the amyloid nucleation score was “inactive”.
In the case of VSRSRER, the amyloid nucleation score is reported as “inactive”.
For FLHILGHVNLFTSLREDLSL, the amyloid nucleation score was “inactive”.
For SAASYLTHDVN, the amyloid nucleation score was “inactive”.
In the case of VFDYADDYYTVNGTVLSPAE, the amyloid nucleation score is reported as -0.283 ± 0.32.
LSWDVYSRHFG gave an amyloid nucleation score of 2.31 ± 0.076.
With SFDSLVISDTVSRDRCLQII the amyloid nucleation score was “inactive”.
For MWICVILGSQIWSRWETMNG, the amyloid nucleation score was “inactive”.
Work on IMTVILSPLLTCNYFCCR yielded an amyloid nucleation score of 2.35 ± 0.085.
With CAWVDRYYKKVIGANRGSLS the amyloid nucleation score was “inactive”.
For FMSRMRKWFGCSNTHSSGTR, the amyloid nucleation score was 1.77 ± 0.078.
With RNKVKQTE the amyloid nucleation score was “inactive”.
With WLDRVY the amyloid nucleation score was “inactive”.
With LVLWMVDTSFAGSVDVSEMA the amyloid nucleation score was “inactive”.
For RDFNMDTVRAVWISQILNSI, the amyloid nucleation score was “inactive”.
For NSGGFSKDDGNGYKA, the amyloid nucleation score was “inactive”.
With NPIRGYLMYSPALSPLVG the amyloid nucleation score was “inactive”.
For LYAFRDSCDTFSC, the amyloid nucleation score was “inactive”.
For NTYVIVPWKLLTNFDEFPHR, the amyloid nucleation score was “inactive”.
With LSLMSSVGCRCSVFSWLYVN the amyloid nucleation score was “inactive”.
Work on ICVLCSGIMKMCCAMGDLSV yielded an amyloid nucleation score of 1.36 ± 0.064.
In the case of VWVTFMRAVMTLELCLERMR, the amyloid nucleation score is reported as “inactive”.
In the case of RHAYQRWLIFC, the amyloid nucleation score is reported as “inactive”.
In the case of WSRSSV, the amyloid nucleation score is reported as “inactive”.
For DFNDSLFLPRIDTPSLVFLQ, the amyloid nucleation score was “inactive”.
For GAGTGQWLDSFGVEIHHPRS, the amyloid nucleation score was “inactive”.
In the case of NSGAWLSMEMMPCRMSVYAC, the amyloid nucleation score is reported as “inactive”.
With SRVSPMFKIRIWNWIPAWAT the amyloid nucleation score was “inactive”.
With DARVFKAVFRVLCDLVPASC the amyloid nucleation score was “inactive”.
For WFFILD, the amyloid nucleation score was “inactive”.
For SRMSGLWD, the amyloid nucleation score was “inactive”.
With LQYLVNLLMQWVLRKIVQKV the amyloid nucleation score was “inactive”.
In the case of KNPTILAFSLGVRGETNRCV, the amyloid nucleation score is reported as “inactive”.
With SLDIKPSMRCGRRCVRGRST the amyloid nucleation score was “inactive”.
For LCLRSVRLCGKAYSINDRRH, the amyloid nucleation score was “inactive”.
For LILYIVAISCSSARSLLRVG, the amyloid nucleation score was “inactive”.
With LTFSSSHCVIMWQFLCKLVG the amyloid nucleation score was “inactive”.
With RQERCGSALPCCCKMIDRRA the amyloid nucleation score was “inactive”.
In the case of INSTRMAFVWR, the amyloid nucleation score is reported as “inactive”.
With RSNMHC the amyloid nucleation score was “inactive”.
With MNYVIIFTWN the amyloid nucleation score was 2.76 ± 0.071.
With IRNERRQGSCGIIISRNCYV the amyloid nucleation score was “inactive”.
With LNELHMFSGPAYLFSVFRDM the amyloid nucleation score was “inactive”.
With YVCLYEDLTYIA the amyloid nucleation score was “inactive”.
With FSAPVLSTLTASLLELKRSG the amyloid nucleation score was “inactive”.
With TCTEGMGCPMSKAARVLLTR the amyloid nucleation score was “inactive”.
With HSCMCKSLNASLMVDVRLPR the amyloid nucleation score was “inactive”.
With SKTMALMYLSFQPHYLYTLC the amyloid nucleation score was “inactive”.
With DFCMWSYRHRDLCNSVFISS the amyloid nucleation score was “inactive”.
For VNTEG, the amyloid nucleation score was “inactive”.
Work on YFNLPISW yielded an amyloid nucleation score of -0.316 ± 0.7.
ASIPGQRYSEPVKPGTCMYV showed an amyloid nucleation score of 1.3 ± 0.14.
In the case of MSGNA, the amyloid nucleation score is reported as “inactive”.
With GNCHDVWVYVLCTVGMSLMR the amyloid nucleation score was “inactive”.
RMYWAV showed an amyloid nucleation score of 1.02 ± 0.19.
With FSFMLSDTGLSVFSSVYDEA the amyloid nucleation score was “inactive”.
For STLVFPLKFFELCSKD, the amyloid nucleation score was “inactive”.
With LWYHWHNA the amyloid nucleation score was “inactive”.
For IYSVVGCWKPSSVSDMAGLL, the amyloid nucleation score was “inactive”.
For LQFDYLMIYLVQFSVLWVCL, the amyloid nucleation score was “inactive”.
In the case of AVPDVKSAKVDLVNFILAVC, the amyloid nucleation score is reported as “inactive”.
For KGHDAHVAVRVFTGGGLV, the amyloid nucleation score was “inactive”.
For VLMGRCLPRWLLYEELLVYV, the amyloid nucleation score was “inactive”.
With FWFLYSSRAQRRRRHWI the amyloid nucleation score was “inactive”.
In the case of KVVARYRRKVCYNWHISEEK, the amyloid nucleation score is reported as “inactive”.
VVNILW gave an amyloid nucleation score of 1.82 ± 0.1.
Work on NCDILVLCLSCIADGRQSYE yielded an amyloid nucleation score of 2.96 ± 0.078.
With LKVYR the amyloid nucleation score was “inactive”.
In the case of HGSLMATGICWLGIFVSEVA, the amyloid nucleation score is reported as “inactive”.
For IYLDFNASWLACNKLICLRN, the amyloid nucleation score was 1.01 ± 0.13.
With KIWYLSIYVYFYVYYLDGSL the amyloid nucleation score was “inactive”.
In the case of VKVEPVRLLWTHVWKS, the amyloid nucleation score is reported as “inactive”.
For QQEMCTLFFRN, the amyloid nucleation score was “inactive”.
In the case of TSGSEDLLYGRDVVVYRSGC, the amyloid nucleation score is reported as “inactive”.
In the case of FGSCSEVFSYVAYLRGINDF, the amyloid nucleation score is reported as “inactive”.
Work on SLLRFSLGSCWTFSPKGNYL yielded an amyloid nucleation score of 1.87 ± 0.085.
In the case of YRQRWSRLCAGQSLYNCGKC, the amyloid nucleation score is reported as “inactive”.
In the case of FNVTWKRLRIGRVGMKQKLS, the amyloid nucleation score is reported as 0.336 ± 0.77.
In the case of PVVHFLWSLYRNLVCVDGKV, the amyloid nucleation score is reported as “inactive”.
RDSVNFTSNCCSVGFNTFNS showed an amyloid nucleation score of 2.67 ± 0.053.
For SSMSSTSALLYMHDNFWCAI, the amyloid nucleation score was “inactive”.
With VLRCTSPIES the amyloid nucleation score was “inactive”.
